Laboratory results reported in patent US20220017574A1 (Janssen / Centocor, published 2022).

How the values were obtained:
Assay in all cases: sandwich ELISA: antibody coated at 1 µg/ml, purified F protein titrated (after 4 weeks at 4 °C), detection with biotinylated CR9506
[1] = molecular target: T1, control pre-fusion F protein RSV150042 (respiratory syncytial virus subgroup A, UniProt P03420 27-109; P03420 137-513)
T1 construct: Control protein described in WO2017/174568; also called PRPM

[2] = molecular target: T2, pre-fusion RSV F protein RSV180305 (respiratory syncytial virus subgroup A …, UniProt P12568 27-109; P03420 137-513)
T2 construct: Soluble F ectodomain; also called RSV pre-F (RSV180305)

[3] = molecular target: T3, pre-fusion RSV F protein RSV172527 (respiratory syncytial virus subgroup A …, UniProt P12568 27-109; P03420 137-513)
T3 construct: Soluble F ectodomain
T3 chain 1: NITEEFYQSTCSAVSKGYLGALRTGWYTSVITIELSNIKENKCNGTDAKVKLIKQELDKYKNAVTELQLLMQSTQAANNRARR
T3 chain 2: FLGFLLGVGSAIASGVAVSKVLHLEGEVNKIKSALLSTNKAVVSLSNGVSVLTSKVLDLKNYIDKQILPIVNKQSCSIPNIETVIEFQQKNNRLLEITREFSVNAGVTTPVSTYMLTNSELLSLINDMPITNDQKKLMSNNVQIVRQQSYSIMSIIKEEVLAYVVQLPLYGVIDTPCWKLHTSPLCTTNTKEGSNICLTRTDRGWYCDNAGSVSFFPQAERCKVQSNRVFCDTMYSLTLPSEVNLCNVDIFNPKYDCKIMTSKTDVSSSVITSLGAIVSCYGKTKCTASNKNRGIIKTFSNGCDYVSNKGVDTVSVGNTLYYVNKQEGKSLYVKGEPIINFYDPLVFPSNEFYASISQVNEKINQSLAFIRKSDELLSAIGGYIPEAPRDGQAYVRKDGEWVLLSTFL

Measured: binding result

B1: monoclonal antibody CR9506 (antibody, human IgG1, kappa, V domains shown)
VH: EVQLVQSGAEVKKPGSSVKVSCKASGGTFSRSLITWVRQAPGQGLEWMGEISLVFGSAKNAQKFQGRVTITADESTSTAHMEMISLKHEDTAVYYCAAHQYGSGTHNNFWDESELRFDLWGQGTLVTVSS
VL: DIVMTQSPSSLSASVGDRVTIACRASQSIGTYLNWYQQKPGKAPKLLIYAASSLQSGVPSRFSGSGSGTHFTLAISSLQAEDFATYSCQQSYTIPYTFGQGTKLEIKR
notes: In the ELISA, CR9506 was coated as a capture antibody and also used biotinylated for detection; also called Mab CR9506
binds: [1] | [2] | [3]
